The text below walks through data of PMC7360973, “Feedback regulation of heat shock factor 1 (Hsf1) activity by Hsp70‐mediated trimer unzipping and dissociation from DNA” (The EMBO Journal, 2020).

Substitutions are numbered along the chain they refer to. Numbers in names are those of the source. Ends that are not written are not given here.

Data set [1] has as its target T1, Human Hsc70 (HSPA8) (human, UniProt P11142 1-646).
T1 construct: Hsc70 (HSPA8), constitutive Hsp70, human, wild type; In the functional rows from MEF and HeLa cells the Hsc70/Hsp70 is the cells' own; this molecule stands for it there; source: E. coli BL21 (DE3) Rosetta, purified (Ni-IDA, Ulp1 cleavage, reverse Ni-IDA)
Kind of data set: fluorescence polarisation; fluorescein-labelled peptide at 1 μM titrated with Hsc70 (0–60 μM), 2 h at 25°C, HKM150 buffer (25 mM HEPES/KOH pH 7.6, 150 mM KCl, 5 mM MgCl2); Hsc70 concentrated in the presence of 1 mM ATP; quadratic fit. To be noted: both partners purified.

Data set [2] deals with the molecule itself. Kind of data set: native gel or EMSA; blue-native PAGE (8% gel, on ice) of purified Hsf1 wild type or variants, also after 10 min at 4–42°C (5 μM protein); Coomassie stain or immunoblot with Hsf1 antiserum.
Data set [3] deals with the molecule itself. Kind of data set: SEC + native gel or EMSA; trimer-to-monomer ratio of freshly purified Hsf1 in the absence of heat shock, by gel filtration (Superdex 200) and BN-PAGE.
Data set [4] deals with the molecule itself. Kind of data set: native gel or EMSA; blue-native PAGE of lysates (15 μg total protein) of transfected HSF1−/− MEFs, immunoblot with Hsf1 antiserum.
For data set [5], the target named is T1, Human Hsc70 (HSPA8). Kind of data set: HDX-MS; 6 μM Hsf1 (monomer or trimer) pre-incubated 30 min at 25°C with 12 μM Hsc70 or 9 μM DnaJB1 in 25 mM HEPES/NaOH pH 7.5, 150 mM NaCl, 10% glycerol, 2 mM DTT; diluted 10-fold in D2O buffer, 30 s at 25°C; online pepsin digestion. To be noted: both partners purified.

T1 sequence (P11142 whole entry): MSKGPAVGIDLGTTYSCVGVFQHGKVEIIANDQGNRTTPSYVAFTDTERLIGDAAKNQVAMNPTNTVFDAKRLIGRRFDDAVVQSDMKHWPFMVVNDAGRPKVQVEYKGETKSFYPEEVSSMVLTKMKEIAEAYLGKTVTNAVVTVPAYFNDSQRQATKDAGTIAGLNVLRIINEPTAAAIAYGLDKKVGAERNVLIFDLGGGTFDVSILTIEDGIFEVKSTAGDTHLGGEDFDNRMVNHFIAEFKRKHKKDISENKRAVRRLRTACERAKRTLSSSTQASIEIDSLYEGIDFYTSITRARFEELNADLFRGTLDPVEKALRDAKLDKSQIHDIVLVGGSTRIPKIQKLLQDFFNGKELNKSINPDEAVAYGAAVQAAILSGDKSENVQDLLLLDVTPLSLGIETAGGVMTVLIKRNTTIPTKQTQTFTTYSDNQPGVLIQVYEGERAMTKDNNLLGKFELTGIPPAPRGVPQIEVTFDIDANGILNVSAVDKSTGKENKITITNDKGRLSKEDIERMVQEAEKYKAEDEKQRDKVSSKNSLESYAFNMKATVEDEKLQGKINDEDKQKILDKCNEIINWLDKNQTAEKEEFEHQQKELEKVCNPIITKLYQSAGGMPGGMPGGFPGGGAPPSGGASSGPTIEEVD

B1: Hsf1 peptide G204‐N214‐C (peptide)
peptide: GVKRKIPLMLNC(fluorescein‑5‑maleimide)
notes: Hsf1, human, residues 204-214; C-terminal cysteine for labelling, not part of the Hsf1 stretch
For the molecule B1, the binding result in the data set with Human Hsc70 (HSPA8) [1] is given as “binds”.

B2: Hsf1 peptide Y468‐S480‐C (peptide)
peptide: YTAQPLFLLDPGSC(fluorescein‑5‑maleimide)
notes: Hsf1, human, residues 468-480 (in the TAD); C-terminal cysteine for labelling, not part of the Hsf1 stretch
As for B2, the binding result with Human Hsc70 (HSPA8) [1] is on record as “binds”.

B3: Hsf1 peptide S461‐Q471‐C (peptide)
peptide: SGKQLVHYTAQC(fluorescein‑5‑maleimide)
notes: Hsf1, human, residues 461-471 (in the TAD); C-terminal cysteine for labelling, not part of the Hsf1 stretch; also called residues 461–471
Consider B3, for which, in the data set with Human Hsc70 (HSPA8) [1], the Kd was 5 to 30 µM.

B4: Hsf1 peptide N200‐K208‐C (peptide)
peptide: NRILGVKRKC(fluorescein‑5‑maleimide)
notes: Hsf1, human, residues 200-208; C-terminal cysteine for labelling, not part of the Hsf1 stretch
For the molecule B4, in the data set with Human Hsc70 (HSPA8) [1], the binding result is “binds”.

B5: Hsf1∆(202–213) (natural protein, human, UniProt Q00613 1-529, looked up)
chain: MDLPVGPGAAGPSNVPAFLTKLWTLVSDPDTDALICWSPSGNSFHVFDQGQFAKEVLPKYFKHNNMASFVRQLNMYGFRKVVHIEQGGLVKPERDDTEFQHPCFLRGQEQLLENIKRKVTSVSTLKSEDIKIRQDSVTKLLTDVQLMKGKQECMDSKLLAMKHENEALWREVASLRQKHAQQQKVVNKLIQFLISLVQSNRNDSGSAHSMPKYSRQFSLEHVHGSGPYSAPSPAYSSSSLYAPDAVASSGPIISDITELAPASPMASPGGSIDERPLSSSPLVRVKEEPPSPPQSPRVEEASPGRPSSVDTLLSPTALIDSILRESEPAPASVTALTDARGHTDTEGRPPSPPPTSTPEKCLSVACLDKNELSDHLDAMDSNLDNLQTMLSSHGFSVDTSALLDLFSPSVTVPDMSLPDLDSSLASIQELLSPQEPPRPPEAENSSPDSGKQLVHYTAQPLFLLDPGSVDTGSNDLPVLFELGEGSYFSEGDGFAEDPTISLLTGSEPPKAKDPTVS
notes: source: E. coli BL21 (DE3) Rosetta, purified (Ni-IDA, Ulp1 cleavage, Superdex 200); not shown: His6-SUMO, N-terminal, cleaved
On to B5, for which the binding result in data set [2] was “binds”.

B6: Hsf1‐I190S,I194S (natural protein, human, UniProt Q00613 1-529, looked up)
chain: MDLPVGPGAAGPSNVPAFLTKLWTLVSDPDTDALICWSPSGNSFHVFDQGQFAKEVLPKYFKHNNMASFVRQLNMYGFRKVVHIEQGGLVKPERDDTEFQHPCFLRGQEQLLENIKRKVTSVSTLKSEDIKIRQDSVTKLLTDVQLMKGKQECMDSKLLAMKHENEALWREVASLRQKHAQQQKVVNKLSQFLSSLVQSNRILGVKRKIPLMLNDSGSAHSMPKYSRQFSLEHVHGSGPYSAPSPAYSSSSLYAPDAVASSGPIISDITELAPASPMASPGGSIDERPLSSSPLVRVKEEPPSPPQSPRVEEASPGRPSSVDTLLSPTALIDSILRESEPAPASVTALTDARGHTDTEGRPPSPPPTSTPEKCLSVACLDKNELSDHLDAMDSNLDNLQTMLSSHGFSVDTSALLDLFSPSVTVPDMSLPDLDSSLASIQELLSPQEPPRPPEAENSSPDSGKQLVHYTAQPLFLLDPGSVDTGSNDLPVLFELGEGSYFSEGDGFAEDPTISLLTGSEPPKAKDPTVS
notes: Hsf1, human, with I190S and I194S in HR-B; source: purified (gel filtration)
As for B6, in data set [3], the “stoichiometry N” value came out at 3.

B7: Hsf1‐I202S,L203S,V205S expressed from pIRES‐HSF1‐I202S,L203S,V205S_hrGFP in cells (natural protein, human, UniProt Q00613 1-529, looked up)
chain: B6 chain with S190I, S194I, I202S, L203S, V205S
notes: Hsf1, human, with I202S, L203S, V205S; source: HSF1−/− MEF or HeLa, transiently transfected, in lysate or in cells
With B7, the “stoichiometry N” value in data set [4] was found to be 3.

B8: Human heat shock transcription factor 1 (Hsf1), wild type (natural protein, UniProt Q00613 1-529, looked up)
chain: B6 chain with S190I, S194I
notes: heat shock transcription factor 1 (Hsf1), human, wild type; Purified both as a monomer and as a trimer; One molecule is used for both states; the assay's format tells which was used; also called Hsf1wt; wt; source: E. coli BL21 (DE3) Rosetta, purified (Ni-IDA, Ulp1 cleavage, Superdex 200); monomeric and trimeric fractions collected separately; not shown: His6-SUMO, N-terminal, cleaved
As to B8, the binding result with Human Hsc70 (HSPA8) [5] is given as “binds”.
